Our source for the AUC(0-inf) and level values is patent publication US12097241B2, “Methods of treating kidney failure, and/or improving or stablizing renal function using modified relaxin polypeptides” (BRISTOL-MYERS SQUIBB COMPANY, priority 2017, dated 2024).

A short description of this data set: In vivo pharmacokinetic (PK) studies in rats. To be noted: rat, male Sprague-Dawley rats, single SC dose 1.0 mg/kg, serum ELISA; for AUC(0-inf): read-out: Rat PK AUC Total; for level at time molar at 24 h: read-out: Rat PK C24. Also noted: species or system Sprague-Dawley rats. As for the experimental part: […] Blood samples were collected via jugular vein at different time points out to 72 hours. Blood samples were allowed to coagulate at room temperature (30-60 m) and then centrifuged (1500-2000) at 4° C. to obtain serum. After centrifugation serum samples were transferred to 96 well plates and stored at −80° C. until bioanalysis. Relaxin concentrations were measured from serum by ELISA.
Relaxin concentration-time profiles from individual animals were used for analysis. Pharmacokinetic parameters were calculated by non-compartmental methods using Phoenix WinNonlin (version 6.4) or Kinetica (version 5). Mean pharmacokinetic parameters Cmax, AUCinf, C24 and half-life were reported (Table 4). Table 4. In vivo PK data (abbreviations as in Table 3).

With `CCCCCCCCCCCCCCCC(=O)N[C@@H](CCC(=O)NCC(=O)NCC(=O)NCC(=O)N[C@@H](CCC(=O)O)C(=O)N[C@@H](CCC(=O)O)C(=O)N[C@@H](CCC(=O)O)C(=O)NCCON=C(C)c1ccc(C[C@H](N)C(=O)N[C@@H](CC(C)C)C(=O)N[C@@H](Cc2ccc(O)cc2)C(=O)N[C@@H](CO)C(=O)N[C@@H](C)C(=O)N[C@@H](CC(C)C)C(=O)N[C@@H](C)C(=O)N[C@@H](CC(N)=O)C(=O)N[C@@H](CCCCN)C(=O)N[C@H]2CSSC[C@@H]3NC(=O)CNC(=O)[C@H](C(C)C)NC(=O)[C@H](Cc4c[nH]cn4)NC(=O)[C@H](CSSC[C@H](NC(=O)[C@H](CC(C)C)NC(=O)[C@H](CCCCN)NC(=O)[C@@H](NC(=O)[C@@H](NC(=O)[C@H](CCC(=O)O)NC(=O)[C@H](CCC(=O)O)NC(=O)[C@H](CCSC)NC(=O)[C@H](Cc4c[nH]c5ccccc45)NC(=O)[C@H](CO)NC(=O)[C@H](C)N)C(C)C)[C@@H](C)CC)C(=O)NCC(=O)N[C@@H](CCCNC(=N)N)C(=O)N[C@@H](CCC(=O)O)C(=O)N[C@@H](CC(C)C)C(=O)N[C@@H](C(C)C)C(=O)N[C@@H](CCCNC(=N)N)C(=O)N[C@@H](C)C(=O)N[C@@H](CCC(N)=O)C(=O)N[C@@H]([C@@H](C)CC)C(=O)N[C@@H](C)C(=O)N[C@@H]([C@@H](C)CC)C(=O)N[C@H](C(=O)NCC(=O)N[C@@H](CCSC)C(=O)N[C@@H](CO)C(=O)N[C@H](C(=O)N[C@@H](Cc4c[nH]c5ccccc45)C(=O)N[C@@H](CO)C(=O)O)[C@@H](C)O)CSSC[C@@H](C(=O)O)NC(=O)[C@H](Cc4ccccc4)NC(=O)[C@H](CCCNC(=N)N)NC(=O)[C@H](C)NC(=O)[C@H](CC(C)C)NC(=O)[C@H](CO)NC(=O)[C@H](CCCNC(=N)N)NC(=O)[C@H](CCCCN)NC(=O)[C@H]([C@@H](C)O)NC3=O)NC2=O)cc1)C(=O)O` [AQ1-EEEGGG-Glu^γ-C15-CH3], the AUC(0-inf) was 0.37 µM·h and the level at time molar at 24 h turned out to be 0.89 nM.

Turning to `CC[C@H](C)[C@@H]1NC(=O)[C@H](C)NC(=O)[C@H]([C@@H](C)CC)NC(=O)[C@H](CCC(N)=O)NC(=O)[C@H](C)NC(=O)[C@H](CCCNC(=N)N)NC(=O)[C@H](C(C)C)NC(=O)[C@H](CC(C)C)NC(=O)[C@H](CCC(=O)O)NC(=O)[C@H](CCCNC(=N)N)NC(=O)CNC(=O)[C@@H](NC(=O)[C@H](CC(C)C)NC(=O)[C@H](CCCCN)NC(=O)[C@@H](NC(=O)[C@@H](NC(=O)[C@H](CCC(=O)O)NC(=O)[C@H](CCC(=O)O)NC(=O)[C@H](CCSC)NC(=O)[C@H](Cc2c[nH]c3ccccc23)NC(=O)[C@H](CO)NC(=O)[C@H](C)N)C(C)C)[C@@H](C)CC)CSSC[C@@H]2NC(=O)[C@@H](NC(=O)[C@H](CCCCN)NC(=O)[C@H](CC(N)=O)NC(=O)[C@H](C)NC(=O)[C@H](CC(C)C)NC(=O)[C@H](C)NC(=O)[C@H](CO)NC(=O)[C@H](Cc3ccc(O)cc3)NC(=O)[C@H](CC(C)C)NC(=O)[C@@H](N)Cc3ccc(C(C)=NOCCNC(=O)[C@H](CCCCN)NC(=O)[C@H](CO)NC(=O)CNC(=O)CNC(=O)[C@H](CO)NC(=O)CNC(=O)CNC(=O)CC[C@H](NC(=O)CCCCCCCCCCCCC(=O)O)C(=O)O)cc3)CSSC[C@H](NC(=O)CNC(=O)[C@H](C(C)C)NC(=O)[C@H](Cc3c[nH]cn3)NC2=O)C(=O)N[C@@H]([C@@H](C)O)C(=O)N[C@@H](CCCCN)C(=O)N[C@@H](CCCNC(=N)N)C(=O)N[C@@H](CO)C(=O)N[C@@H](CC(C)C)C(=O)N[C@@H](C)C(=O)N[C@@H](CCCNC(=N)N)C(=O)N[C@@H](Cc2ccccc2)C(=O)N[C@H](C(=O)O)CSSC[C@@H](C(=O)NCC(=O)N[C@@H](CCSC)C(=O)N[C@@H](CO)C(=O)N[C@H](C(=O)N[C@@H](Cc2c[nH]c3ccccc23)C(=O)N[C@@H](CO)C(=O)O)[C@@H](C)O)NC1=O` [AQ1-KSGGSGG-Glu^γ-C13-COOH], the AUC(0-inf) amounted to 0.814 µM·h and the level at time molar at 24 h was 0.73 nM.
